Laboratory results from paper PMC10377175.

Key:
[1] = target: T1, ENOX2 (tNOX) (Homo sapiens) (UniProt Q16206); assay: electrochemical (E-DNA, square wave voltammetry); conditions: apparent Kd; 0.1-200 nM ENOX2; PBS with 1 mM MgCl2; internal methylene blue on thymine T21 (printed after ...CATCTTT); 5' disulfide linker reduced to thiol; EMSA: 0.7% agarose, 0.5x TBE (65 mM Tris, 22.5 mM boric acid, 1.25 mM EDTA, 0.5 mM MgCl2, 0.005% Tween-20, pH 8.3); E-DNA: PBS pH 7.4 (137 mM NaCl, 10 mM …)
T1 sequence: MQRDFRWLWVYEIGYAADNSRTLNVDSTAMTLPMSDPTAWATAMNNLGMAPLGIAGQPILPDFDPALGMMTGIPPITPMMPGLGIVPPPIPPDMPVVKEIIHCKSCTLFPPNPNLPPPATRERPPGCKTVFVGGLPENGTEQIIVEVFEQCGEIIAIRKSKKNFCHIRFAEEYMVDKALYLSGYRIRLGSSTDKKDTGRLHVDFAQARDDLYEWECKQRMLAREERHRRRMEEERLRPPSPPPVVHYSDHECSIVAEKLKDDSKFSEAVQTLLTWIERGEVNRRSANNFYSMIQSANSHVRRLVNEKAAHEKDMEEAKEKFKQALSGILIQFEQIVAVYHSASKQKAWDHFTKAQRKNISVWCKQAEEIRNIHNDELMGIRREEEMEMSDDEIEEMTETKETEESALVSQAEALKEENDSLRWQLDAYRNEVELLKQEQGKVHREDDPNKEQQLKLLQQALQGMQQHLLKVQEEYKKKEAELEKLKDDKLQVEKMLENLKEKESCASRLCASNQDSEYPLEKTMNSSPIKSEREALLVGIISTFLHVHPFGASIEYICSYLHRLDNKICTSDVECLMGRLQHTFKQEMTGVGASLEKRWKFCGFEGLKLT

[2] = target: T1, ENOX2 (tNOX) (Homo sapiens); assay: EMSA; conditions: apparent Kd; 1 nM aptamer, 0-100 nM ENOX2; 0.5 mM MgCl2; EMSA: 0.7% agarose, 0.5x TBE (65 mM Tris, 22.5 mM boric acid, 1.25 mM EDTA, 0.5 mM MgCl2, 0.005% Tween-20, pH 8.3); E-DNA: PBS pH 7.4 (137 mM NaCl, 10 mM …)

Sequence | Kd [1] [nM] | Kd [2] [nM]
TAAAGATCCCTGTTCATCTTTTCTCGAGTGTTCTTTAGAACAATGAATCTTT [ENOX2 E-DNA biosensor aptamer] | 6 | –
TTTTTTAGATCCCTGTTCATCTGTCTCGAGTGTTCTTTAATGATCTTTTT [ENOX2-binding aptamer, 5' fluorescein] | – | 0.4
